Source: paper PMC6992781
pKd: −log10 of the molar value. Where “and” joins values, the source holds several entries; their conditions need not be identical. Equal entries are not always repeated.

Molecular target: RVC20 (mature), recombinant human IgG1 (human)
Assay: BLI

Sequence of RVC20 (mature), recombinant human IgG1 (human) (heavy, as listed by the source, chain 1 of 2): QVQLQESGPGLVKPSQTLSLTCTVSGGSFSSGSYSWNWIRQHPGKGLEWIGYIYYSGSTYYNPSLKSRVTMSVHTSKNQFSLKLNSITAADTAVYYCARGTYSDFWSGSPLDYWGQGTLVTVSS
Sequence of RVC20 (mature), recombinant human IgG1 (human) (light, as listed by the source, chain 2 of 2): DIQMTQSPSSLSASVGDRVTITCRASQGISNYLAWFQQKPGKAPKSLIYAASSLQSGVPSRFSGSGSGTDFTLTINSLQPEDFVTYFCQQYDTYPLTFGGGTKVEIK

## RABV G domain III (E31-V56 and N182-D262 joined by three glycines), strain 9147FRA (domain or fragment)
  pKd: 8.10 and 7.95 and 7.91
